Laboratory results reported in US20120282285A1 (RIGSHOSPITALET, published 2012).

What was measured:
[1] = target: T1, Ficolin-3 (human, UniProt O75636 24-299); assay: 10-30% sucrose gradient of serum; fractions read by ELISA and western blot
T1 construct: Serum Ficolin-3 in the co-precipitations, ELISA and gradient. rFicolin-3 on acetylated BSA in the C4 deposition assays; also called rFicolin-3; recombinant human Ficolin-3
Procedure: (§1) Normal human serum was subjected to sucrose gradient separation. 0.75 ml serum was loaded onto 40 ml centrifugation columns consisting of 10-30% sucrose gradients buffered in 10 mM Tris, 145 mM NaCl, 3 mM CaCl₂ and human serum albumin at 30 μg/ml. The loaded columns were centrifuged at 150.000×g in vacuum for 24 hours at 4° C. in a L70 Beckmann ultracentrifuge with a SW28 rotor head. 1.5 ml fractions were collected from the bottom and analyzed by specific ELISA or immunoblotting for the following antigens: MAP-1, MASP-1, MASP-2, MASP-3, sMAP, MBL, Ficolin-2 and Ficolin-3. The peaks of the serum IgM (19S) and IgG (7S) were also assessed indicating the molecular […]. Additionally the fractions were analyzed for the capacity to activate exogenously applied C4. […] The C4 deposition was subsequently measured with polyclonal antibodies to C4c (Q 0369, Dako, Glostrup, Denmark).
(§2) In order to investigate the distribution of MAP-1 in relation to associated molecules and to examine how much appears non-associated we subjected normal human serum to density fractionation using a 10-30% sucrose gradient and ultracentrifugation. Subsequently the collected fractions were analyzed for MAP-1, MASP-3, MBL, Ficolin-2 and -3 by ELISA (FIG. 31A) and MAP-1, MASP-1, -2 and -3, sMAP, MBL, Ficolin-2 and -3 by western blotting (FIG. 31B). […]

[2] = target: T1, Ficolin-3; assay: 10-30% sucrose gradient of serum; fractions read by western blot
Procedure: as §1, §2

T1 sequence (O75636 24-299 limits assumed): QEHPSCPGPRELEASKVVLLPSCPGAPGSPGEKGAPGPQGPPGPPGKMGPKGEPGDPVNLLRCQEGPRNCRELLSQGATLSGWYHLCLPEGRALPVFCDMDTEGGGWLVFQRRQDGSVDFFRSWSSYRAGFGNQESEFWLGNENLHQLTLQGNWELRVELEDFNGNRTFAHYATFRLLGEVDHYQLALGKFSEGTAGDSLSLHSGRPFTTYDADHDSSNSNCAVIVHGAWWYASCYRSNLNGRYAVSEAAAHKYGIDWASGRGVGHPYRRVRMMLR

Row | binding result [1] | binding result [2] | Binder
1 | binds | – | MBL-Associated Serine Protease-3 (MASP-3) (enzyme, also called rMASP-3) HTVELNNMFGQIQSPGYPDSYPSDSEVTWNITVPDGFRIKLYFMHFNLESSYLCEYDYVKVETEDQVLATFCGRETTDTEQTPGQEVVLSPGSFMSITFRSDFSNEERFTGFDAHYMAVDVDECKEREDEELSCDHYCHNYIGGYYCSCRFGYILHTDNRTCRVECSDNLFTQRTGVITSPDFPNPYPKSSECLYTIELEEGFMVNLQFEDIFDIEDHPEVPCPYDYIKIKVGPKVLGPFCGEKAPEPISTQSHSVLILFHSDNSGENRGWRLSYRAAGNECPELQPPVHGKIEPSQAKYFFKDQVLVSCDTGYKVLKDNVEMDTFQIECLKDGTWSNKIPTCKIVDCRAPGELEHGLITFSTRNNLTTYKSEIKYSCQEPYYKMLNNNTGIYTCSAQGVWMNKVLGRSLPTCLPECGQPSRSLPSLVKRIIGGRNAEPGLFPWQALIVVEDTSRVPNDKWFGSGALLSASWILTAAHVLRSQRRDTTVIPVSKEHVTVYLGLHDVRDKSGAVNSSAARVVLHPDFNIQNYNHDIALVQLQEPVPLGPHVMPVCLPRLEPEGPAPHMLGLVAGWGISNPNVTVDEIISSGTRTLSDVLQYVKLPVVPHAECKTSYESRSGNYSVTENMFCAGYYEGGKDTCLGDSGGAFVIFDDLSQRWVVQGLVSWGGPEECGSKQVYGVYTKVSNYVDWVWEQMGLPQSVVEPQVER
2 | – | binds | small MBL-associated protein (sMAP) (other, Serum protein in the sucrose gradient; also called MAp19; MBL-associated plasma protein of 19 kD) TPLGPKWPEPVFGRLASPGFPGEYANDQERRWTLTAPPGYRLRLYFTHFDLELSHLCEYDFVKLSSGAKVLATLCGQESTDTERAPGKDTFYSLGSSLDITFRSDYSNEKPFTGFEAFYAAEDIDECQVAPGEAPTCDHHCHNHLGGFYCSCRAGYVLHRNKRTCSEQSL
